# In PMC7612055 (Nature chemistry, 2021):
# Biological target: proteasome αΔ12-subunit (Thermoplasma acidophilum, UniProt P25156 13-233)
# Test: native gel or EMSA
# Sequence of proteasome αΔ12-subunit (P25156 13-233, stated change not applied): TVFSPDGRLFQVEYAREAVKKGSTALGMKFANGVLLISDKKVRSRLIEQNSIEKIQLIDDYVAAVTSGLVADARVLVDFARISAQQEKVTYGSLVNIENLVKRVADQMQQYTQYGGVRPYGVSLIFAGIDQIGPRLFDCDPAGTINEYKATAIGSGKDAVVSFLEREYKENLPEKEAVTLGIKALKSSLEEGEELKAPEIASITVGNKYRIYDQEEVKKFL
binder,measurement,value
proteasome β-subunit (natural protein) TTTVGITLKDAVIMATERRVTMENFIMHKNGKKLFQIDTYTGMTIAGLVGDAQVLVRYMKAELELYRLQRRVNMPIEAVATLLSNMLNQVKYMPYMVQLLVGGIDTAPHVFSIDAAGGSVEDIYASTGSGSPFVYGVLESQYSEKMTVDEGVDLVIRAISAAKQRDSASGGMIDVAVITRKDGYVQLPTDQIESRIRKLGLIL,binding result,binds
